From patent publication US20220403009A1 (IGM BIOSCIENCES, published 2022)
“And” between values parts separate entries of the source, which are not always exact repeats. Equal entries are not always repeated. Where two headings read alike, the source gives them in different places.

B1: Ab10 IgM (antibody)
VH: QITLKESGPTLVKPTQTLTLTCTFSGFSLSTSGVGVGWIRQPPGKALEWLALIYWDDDKRYSPSLKSRLTITKDTSKNQVVLTMTNMDPVDTATYYCAHHKIERIFDYWGQGTLVTVSS
VL: QSALAQPASVSGSPGQSITISCTGTSSDVGAYNYVSWYQQHPGKAPKLMIYDVSKRPSGVSNRFSGSKSGNTASLTISGLQAEDEADYYCSSYTTSSTVFGGGTKLTVL
chain: not shown
B2: Ab10 IgG (antibody, V domains shown)
VH: B1 VH
VL: B1 VL
B3: Ab7 IgM (antibody)
VH: EVQLVESGGGLVQPGGSLRLSCAVSGFTVSSNYMSWVRQAPGKGLEWVSVIYTGGGTYYADSVKGRFTISRDNSKNTLYLQMNTLRAEDTTVYYCARGDGSYYRAFDYWGQGTLVTVSS
VL: DIQMTQSPSSLSASVGDRVTITCRASQSISNYLNWYHQKPGKAPKLLIYAASSLQSGVPSRFSGSGSGTDFTLTISSLQPEDFATYYCQQSYSPPPTFGPGTKVEIK
chain: not shown
B4: Ab7 IgG (antibody, V domains shown)
VH: B3 VH
VL: B3 VL
B5: Ab8 IgM (antibody)
VH: EVQLVESGGGLIQPGGSLRLSCAASGFTVSRNYMNWVRQAPGKGLEWVSVIYSGGSTFYADSVKGRFTISRDNSKNTLYLQMNSLRAEDTAVYYCARDASSYGIDWGQGTLVTVSS
VL: not shown
chain: not shown
B6: Ab8 IgG (antibody, V domains shown)
VH: B5 VH
VL: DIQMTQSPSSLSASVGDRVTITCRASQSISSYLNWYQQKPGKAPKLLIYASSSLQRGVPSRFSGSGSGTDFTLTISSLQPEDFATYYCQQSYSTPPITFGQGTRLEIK

Key:
[1] = molecular target: T1, SARS-CoV-2 RBD K417E (SARS-CoV-2, UniProt P0DTC2 319-541); test: BLI, RBD on anti-Penta-His sensor
[2] = molecular target: T2, SARS-CoV-2 RBD E484K (SARS-CoV-2, UniProt P0DTC2 319-541); test: BLI, RBD on anti-Penta-His sensor
[3] = molecular target: T3, SARS-CoV-2 RBD Y453F (SARS-CoV-2, UniProt P0DTC2 319-541); test: BLI, RBD on anti-Penta-His sensor
[4] = molecular target: T4, SARS-CoV-2 RBD G446V (SARS-CoV-2, UniProt P0DTC2 319-541); test: BLI, RBD on anti-Penta-His sensor
[5] = molecular target: T1, SARS-CoV-2 RBD K417E; test: BLI, blocking of ACE2-Fc binding to RBD
[6] = molecular target: T2, SARS-CoV-2 RBD E484K; test: BLI, blocking of ACE2-Fc binding to RBD
[7] = molecular target: T3, SARS-CoV-2 RBD Y453F; test: BLI, blocking of ACE2-Fc binding to RBD
[8] = molecular target: T4, SARS-CoV-2 RBD G446V; test: BLI, blocking of ACE2-Fc binding to RBD
[9] = molecular target: T1, SARS-CoV-2 RBD K417E; test: BLI, blocking of ACE2-Fc binding to RBD; remark: listed apart in the source
[10] = molecular target: T2, SARS-CoV-2 RBD E484K; test: BLI, blocking of ACE2-Fc binding to RBD; remark: listed apart in the source
[11] = molecular target: T3, SARS-CoV-2 RBD Y453F; test: BLI, blocking of ACE2-Fc binding to RBD; remark: listed apart in the source
[12] = molecular target: T4, SARS-CoV-2 RBD G446V; test: BLI, blocking of ACE2-Fc binding to RBD; remark: listed apart in the source
[13] = molecular target: T1, SARS-CoV-2 RBD K417E; test: BLI, RBD on anti-Penta-His sensor; remark: listed apart in the source
[14] = molecular target: T2, SARS-CoV-2 RBD E484K; test: BLI, RBD on anti-Penta-His sensor; remark: listed apart in the source
[15] = molecular target: T3, SARS-CoV-2 RBD Y453F; test: BLI, RBD on anti-Penta-His sensor; remark: listed apart in the source
[16] = molecular target: T4, SARS-CoV-2 RBD G446V; test: BLI, RBD on anti-Penta-His sensor; remark: listed apart in the source
[17] = molecular target: T1, SARS-CoV-2 RBD K417E; test: BLI, RBD on anti-Penta-His sensor; remark: listed apart in the source
[18] = molecular target: T2, SARS-CoV-2 RBD E484K; test: BLI, RBD on anti-Penta-His sensor; remark: listed apart in the source
[19] = molecular target: T3, SARS-CoV-2 RBD Y453F; test: BLI, RBD on anti-Penta-His sensor; remark: listed apart in the source
[20] = molecular target: T4, SARS-CoV-2 RBD G446V; test: BLI, RBD on anti-Penta-His sensor; remark: listed apart in the source
[21] = molecular target: T1, SARS-CoV-2 RBD K417E; test: BLI, blocking of ACE2-Fc binding to RBD; remark: listed apart in the source
[22] = molecular target: T2, SARS-CoV-2 RBD E484K; test: BLI, blocking of ACE2-Fc binding to RBD; remark: listed apart in the source
[23] = molecular target: T3, SARS-CoV-2 RBD Y453F; test: BLI, blocking of ACE2-Fc binding to RBD; remark: listed apart in the source
[24] = molecular target: T4, SARS-CoV-2 RBD G446V; test: BLI, blocking of ACE2-Fc binding to RBD; remark: listed apart in the source

| Binder | Kd [1] | Kd [2] | Kd [3] | Kd [4] | IC50 [5] | IC50 [6] | IC50 [7] | IC50 [8] | IC50 [9] | IC50 [10] | IC50 [11] | IC50 [12] | Kd [13] | Kd [15] | Kd [16] | Kd [17] | Kd [18] | Kd [19] | Kd [20] | IC50 [21] | also measured |
| --- | --- | --- | --- | --- | --- | --- | --- | --- | --- | --- | --- | --- | --- | --- | --- | --- | --- | --- | --- | --- | --- |
| B1 | < 1 pM | < 1 pM | < 1 pM | 110 pM | 0.32 nM and 0.28 µg/mL | 0.47 nM and 0.41 µg/mL | 0.49 nM and 0.42 µg/mL | 5 nM and 4.3 µg/mL | – | – | – | – | – | – | – | – | – | – | – | – | – |
| B2 | < 1 pM | < 1 pM | < 1 pM | 120000 pM | 3.8 nM and 0.55 µg/mL | 10 nM and 1.5 µg/mL | 8.6 nM and 1.2 µg/mL | > 69 nM and > 10 µg/mL | – | – | – | – | – | – | – | – | – | – | – | – | – |
| B3 | – | – | – | – | – | – | – | – | 0.36 nM and 0.31 µg/mL | 0.87 nM and 0.76 µg/mL | 0.42 nM and 0.36 µg/mL | 0.32 nM and 0.28 µg/mL | < 1 pM | < 1 pM | < 1 pM | – | – | – | – | – | Kd [14]: 7 pM |
| B4 | – | – | – | – | – | – | – | – | 2.4 nM and 0.35 µg/mL | > 69 nM and > 10 µg/mL | 3.2 nM and 0.46 µg/mL | 2.1 nM and 0.3 µg/mL | < 1 pM | < 1 pM | < 1 pM | – | – | – | – | – | – |
| B5 | – | – | – | – | – | – | – | – | – | – | – | – | – | – | – | < 1 pM | < 1 pM | < 1 pM | < 1 pM | 1 µg/mL and 1.2 nM | IC50 [22]: 1.3 µg/mL and 1.5 nM; IC50 [23]: 0.98 µg/mL and 1.1 nM; IC50 [24]: 0.78 µg/mL and 0.9 nM |
| B6 | – | – | – | – | – | – | – | – | – | – | – | – | – | – | – | 2000 pM | < 1 pM | < 1 pM | < 1 pM | 1 µg/mL and 7.2 nM | IC50 [22]: 2.8 µg/mL and 19 nM; IC50 [23]: 1 µg/mL and 7.2 nM; IC50 [24]: 0.88 µg/mL and 6.1 nM |
